Laboratory results: publication PMC3630167 (2013)
Where a chain is given by its changes, count along the chain named. No end group written: not given here.

T1: synthetic (γ-D-Glu)5 (not fully specified (residues 1, 2, 3, 4, 5))
T1 peptide: EEEEE

B1: mAb F26G3 IgG1 subclass switch variant (antibody, V domains shown)
VH: EVQLVESGGGLVQPKGSLKLSCAASGFTFNTYAMNWVRQAPGKGLEWVARIRSKSNNYATYYADSVKDRFTISRDDSQSMLYLQMNNLKTEDTAMYYCVRGYYGWDYWGQGTSVTVSS
VL: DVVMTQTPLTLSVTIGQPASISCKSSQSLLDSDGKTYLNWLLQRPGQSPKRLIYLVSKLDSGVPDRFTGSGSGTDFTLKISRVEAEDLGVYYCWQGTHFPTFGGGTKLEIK
B2: mAb F26G3 IgG2a subclass switch variant (antibody, V domains shown)
VH: B1 VH
VL: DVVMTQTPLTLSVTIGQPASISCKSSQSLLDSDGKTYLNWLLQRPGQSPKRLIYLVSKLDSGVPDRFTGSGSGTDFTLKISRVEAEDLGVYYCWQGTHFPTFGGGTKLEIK
B3: mAb F24F2 IgG2a subclass switch variant (antibody, V domains shown)
VH: B1 VH with Y102L, Y103R, G104Y, W105L, S113T, V114L
VL: not shown
B4: mAb F26G3 IgG2b subclass switch variant (antibody, V domains shown)
VH: B1 VH
VL: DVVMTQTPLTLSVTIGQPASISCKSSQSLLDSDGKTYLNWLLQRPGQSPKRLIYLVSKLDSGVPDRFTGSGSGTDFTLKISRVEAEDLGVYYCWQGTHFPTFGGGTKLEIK
B5: mAb F24F2 IgG2b subclass switch variant (antibody, V domains shown)
VH: B1 VH with Y102L, Y103R, G104Y, W105L, S113T, V114L
VL: not shown
B6: mAb F24F2 IgG1 subclass switch variant (antibody, V domains shown)
VH: B1 VH with Y102L, Y103R, G104Y, W105L, S113T, V114L
VL: not shown

Target: T1, synthetic (γ-D-Glu)5

Row | Binder | Kd [µM]
1 | B1 | 13
2 | B2 | 45
3 | B3 | 18
4 | B4 | 6.7
5 | B5 | 9
6 | B6 | 18
